Entries after “also recorded” stand apart in the source; their conditions may differ. Each block holds one substance with its values, some of them ahead of it. No end group written: not given here.
Columns and labels:
[1] = biological target: human calcitonin receptor, endogenous (GBM tissue, A172 glioblastoma cell line) (human) (UniProt P30988); experiment: cell-based or functional assay; conditions: scale: log EC50
[2] = tested on: breast cancer xenograft; conditions: mouse xenograft models of breast cancer; administration of calcitonin; cited from earlier work
[3] = tested on: T47D; conditions: cancer cell lines such as T47D; cited from earlier work
[4] = biological target: T1, CTR (Homo sapiens, UniProt P30988); experiment: Stimulation of cAMP production (adenylyl cyclase activity) in GBM cell line A172; type: cell-based; conditions: 10^−6M sCT (8-32)
T1 construct: cMyc; expressed in transfected cells
T1 sequence (P30988 25-474): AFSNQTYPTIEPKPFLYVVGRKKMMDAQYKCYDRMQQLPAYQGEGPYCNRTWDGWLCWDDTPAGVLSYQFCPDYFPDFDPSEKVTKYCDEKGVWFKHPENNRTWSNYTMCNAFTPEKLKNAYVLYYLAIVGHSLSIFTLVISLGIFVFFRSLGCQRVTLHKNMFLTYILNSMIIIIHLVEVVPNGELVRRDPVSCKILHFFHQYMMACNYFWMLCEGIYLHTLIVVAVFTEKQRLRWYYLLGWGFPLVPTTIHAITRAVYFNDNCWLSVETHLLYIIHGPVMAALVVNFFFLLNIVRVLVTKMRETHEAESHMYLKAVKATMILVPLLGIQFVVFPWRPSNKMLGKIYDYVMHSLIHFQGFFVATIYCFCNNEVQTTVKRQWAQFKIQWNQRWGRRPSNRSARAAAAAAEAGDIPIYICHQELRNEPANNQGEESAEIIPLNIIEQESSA
Source text: FIG. 6. […]. (C) is an immunoblot of a crude membrane preparation from the cell line A172 and probed with the anti-CTR antibody MCA2191.
(§1) The glioblastoma cell line A172 was maintained in DMEM/10% FBS.
FIG. 6 illustrates the concentration response curves and immunoblot for the GBM cell line A172. […]. The stimulation was inhibited by the antagonist 10^−6M sCT (8-32). In immunoblots (C) of whole cell lysates of A172 probed with the anti-CTR antibody MCA2191, there is a minor band that runs with a mobility of ˜70 kD and a major band at 52 kD.

[5] = biological target: T1, CTR; experiment: Inhibition of phosphorylation of ERK1/2 in GBM cell line A172; type: cell-based; conditions: 10^−6M sCT (8-32)
Source text: FIG. 6. […] (C) is an immunoblot of a crude membrane preparation from the cell line A172 and probed with the anti-CTR antibody MCA2191.
as §1
FIG. 6 illustrates the concentration response curves and immunoblot for the GBM cell line A172.

- log EC50, inhibition of phosphorylation of ERK1/2 in the GBM cell line A172 [1]: -10.5
- log EC50, stimulation of adenylyl cyclase activity (cAMP production) in the GBM cell line A172 [1]: -9.9
Substance: human CT (from UniProt P01258 85-116) (ligand)

Substance: calcitonin (CGNLSTCMLGTYTQDFNKFHTFPQTAIGVGAP; ends and bridges not checked; cysteine pairing not given here; UniProt P01258 85-116, looked up) [calcitonin (CT), calcitonin receptor agonist]
- tumor volume [2]: significantly reduced
- cell proliferation [3]: inhibits cell proliferation

- effect on the hCT stimulation of adenylyl cyclase activity [4]: inhibited
- effect on the hCT inhibition of ERK1/2 phosphorylation [5]: inhibited; also recorded: antagonised
Substance: sCT (8-32): antagonist (also called inverse agonist) of CTR (VLGKLSQELHKLQTYPRTNTGSGTP)
